This note sets out measurements from paper PMC11130294 (Nature Communications, 2024).

Assay [1] concerns the target FabDA1. Nature of the assay: MST; pH 5.0: Fab labelled with a 647-nm fluorophore at 40 nM, NorA in PMAL-C8 amphipol at varied concentrations; 50 mM acetate pH 5.0, 100 mM NaCl, 0.025% Tween-20; 15 min incubation; fit with Hill slope 1.0; three replicates.
In assay [2] the target is FabDA1. Nature of the assay: MST; pH 7.5: Fab labelled with a 647-nm fluorophore at 40 nM, NorA in PMAL-C8 amphipol at varied concentrations; 20 mM Tris pH 7.5, 100 mM NaCl, 0.025% Tween-20; 15 min incubation; fit with Hill slope 1.0; three replicates.
Assay [3] addresses T1, Staphylococcus aureus efflux pump NorA, wild type (S. aureus, UniProt P0A0J7).
T1 construct: NorA, major facilitator superfamily efflux pump of S. aureus; the construct is not described here; The C-terminal Myc tag is told only for the MRSA expression plasmid, not for this E. coli protein; also called wild-type NorA
In words: MST; NorA in amphipol at varied concentrations mixed with fluorophore-labelled Fab at 40 nM; 20 mM Tris pH 7.5, 100 mM NaCl, 0.025% Tween-20; 15 min incubation; three replicates. The following applies: both partners purified.

One may read the Kd as a measure of binding affinity in units of concentration. The low end stands for higher affinity, the high end for lower affinity.

B1: NorA (wild-type, Staphylococcus aureus efflux pump) (natural protein)
chain: MNKQIFVLYFNIFLIFLGIGLVIPVLPVYLKDLGLTGSDLGLLVAAFALSQMIISPFGGTLADKLGKKLIICIGLILFSVSEFMFAVGHNFSVLMLSRVIGGMSAGMVMPGVTGLIADISPSHQKAKNFGYMSAIINSGFILGPGIGGFMAEVSHRMPFYFAGALGILAFIMSIVLIHDPKKSTTSGFQKLEPQLLTKINWKVFITPVILTLVLSFGLSAFETLYSLYTADKVNYSPKDISIAITGGGIFGALFQIYFFDKFMKYFSELTFIAWSLLYSVVVLILLVFANGYWSIMLISFVVFIGFDMIRPAITNYFSNIAGERQGFAGGLNSTFTSMGNFIGPLIAGALFDVHIEAPIYMAIGVSLAGVVIVLIEKQHRAKLKEQNM
Turning to B1, the Kd is 2900 nM in assay [1] and > 24500 nM in assay [2].

B2: Fab36 (Fab, V domains shown)
VH: EVQLVESGGGLVQPGGSLRLSCAASGFTFSSSSIHWVRQAPGKGLEWVASISSSSGSTSYADSVKGRFTISADTSKNTAYLQMNSLRAEDTAVYYCARYSRYYYYAWRVGGYWGGLDYWGQGTLVTVFN
VL: DIQMTQSPSSLSASVGDRVTITCRASQSVSSAVAWYQQKPGKAPKLLIYSASSLYSGVPSRFSGSRSGTDFTLTISSLQPEDFATYYCQQSSSSLITFGQGTKVEIK
notes: also called outward-open-specific Fab36
As for B2, the binding result in assay [3] is “binds”.
